Experimental data: publication PMC9712106 (2022)

T1: PTRAMP–CSS heterodimer (disulfide-linked PfPTRAMP 42–309 and PfCSS 20–290) (P. falciparum)
T1 chain 1: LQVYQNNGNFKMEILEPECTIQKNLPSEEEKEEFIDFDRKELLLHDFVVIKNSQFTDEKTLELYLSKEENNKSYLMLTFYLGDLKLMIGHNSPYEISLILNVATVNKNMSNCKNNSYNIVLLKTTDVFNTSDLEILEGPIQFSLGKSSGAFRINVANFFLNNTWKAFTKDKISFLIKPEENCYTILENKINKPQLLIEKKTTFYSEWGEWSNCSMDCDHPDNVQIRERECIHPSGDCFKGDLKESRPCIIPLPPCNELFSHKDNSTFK
T1 chain 2: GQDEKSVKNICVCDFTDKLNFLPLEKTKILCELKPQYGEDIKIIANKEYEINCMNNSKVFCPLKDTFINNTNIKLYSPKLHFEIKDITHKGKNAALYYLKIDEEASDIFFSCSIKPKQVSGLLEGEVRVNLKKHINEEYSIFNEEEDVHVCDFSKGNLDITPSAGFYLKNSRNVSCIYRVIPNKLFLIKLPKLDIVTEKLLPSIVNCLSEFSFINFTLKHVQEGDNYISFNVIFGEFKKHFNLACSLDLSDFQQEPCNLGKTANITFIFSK

B1: anti-PfPTRAMP nanobody H10 (VHH)
VHH: QVQLQESGGGLVQPGGSLRLSCAASGFTFDNYWMYWVRQAPGKGLEWVSAINTVGSHTYYADSVKGRFTISRDNAKNTLYLQMNSLKSEDTAVYYCAKGPWGFGTSGWGEMDYWGKGTQVTVSS
B2: anti-PfPTRAMP nanobody H8 (VHH)
VHH: QVQLQESGGGLVQPGGSLRLSCAASGFTFSSYWMYWVRQAPGKGLEWVSAINTGGGSTAYADSVKGRFTISRDNAKNTLYLQMNSLKSDDTAVYYCVKARGSSWSDRVFDYWGQGTQVTVSS
B3: PfCSS (residues 20 to 290) (domain or fragment)
chain: T1 chain 2
modifications: N-linked glycan on Asn88 (seen in the crystal structure)
B4: anti-PfCSS nanobody D1 (VHH)
VHH: QVQLQESGGGLVQAGGSLRLSCAASGRTFSSLAMGWFRQPPGKEREFVAAISYSSGSTYYADSVKGRFTISRDNAKNTVYLQMNSLKPEDTAVYYCAVTPPDTYISTMGHEYDYWGQGTQVTVSS
B5: anti-PfCSS nanobody C9 (VHH)
VHH: QVQLQESGGGLVQAGDSLRLSCAASGRTFSSYAMGWFRQAPGKEREFVAAIAWNGGSTYYQDSVKGRFTISRDNAKNTVYLQMNSLKPEDTAVYYCAADDSYMSTMIHEYDYWGQGTQVTVSS
B6: anti-PfCSS nanobody B1 (VHH)
VHH: QVQLQESGGGLVQYGGSLRLSCAASGRTFSSYSMGWFRQAPGKEREFVAAISWTGGNTYYLGSTEGRFTISRDNAKNTVFLQMNNLKPEDTAVYYCAAKGRGSSWPTYDYRGQGTQVTVSS
B7: anti-PfCSS nanobody F7 (VHH)
VHH: QVQLQESGGGSVQVGDSLSLSCVASGRTFSTYALGWFRQAPGKEREFVAAASANGKVAPVTGSLRDRFSISRDNAKNTMYLQMNNLKPEDTAVYYCAAATGSEVFISTSPNVYDIWGQGTQVTVSS
B8: anti-PfCSS nanobody D9 (VHH)
VHH: QVQLQESGGGLVQAGGSLTLSCAASGRTFSRSAMGWFRQAPGKGREFVAAISSGDTSTYYMDSVKGRFTISRDSSKNTVYLQMNNLRPEDTAVYYCAADPKSYITTMISEYDIWGQGTQVTVSS
B9: D2 nanobody (anti-PfCSS, inhibitory) (VHH)
VHH: QVQLQESGGGLVQAGGSLRLSCAASGRTFSSYAMGWFRQAPGKEREFVAAISYSGSNTYDADSVKGRFAISRDNAKNTVYLQMNSLKPEDTAVYYCAAAGVYSGTYTDTEFDYWGQGTQVTVSS
B10: anti-PfCSS nanobody F1 (VHH)
VHH: QVQLQESGGGLVQAGGPLRLSCVASGRTFSLHLMGWFRQAPGKEREFVAAISGSGGSTYYADSVKGRFTISRDNAKNTVYLQMNSLKPEDTAVYYCAADLENYMSTMLDGYNYWGQGTQVTVSS
B11: H2 nanobody (anti-PfCSS, non-inhibitory) (VHH)
VHH: QVQLQESGGGLVQPGGSLRLSCAASGSIFSTNAMGWYRQAPGKQREQVATITSGSSTNYADSVKGRFTISRDNAKNTVYLQMNSLKPEDTAVYYCNAAGATIDLADFGSWGQGTQVTVSS
B12: anti-PfCSS nanobody C1 (VHH)
VHH: QVQLQESGGGLVQAGGSLRLSCAASGRSFSSYAMGWFSQAPGKEREFVAAISWNGGSTYYADSVKGRFTISRNNAKNTVYLQMNSLKPEDTAVYYCAATEPEIYISTMAEGYDYWGQGTQVTVSS
B13: anti-PfCSS nanobody C10 (VHH)
VHH: QVQLQESGGGLVQAGGSLRLSCVASGRTFSNDAMGWFRQAPGKEREFVAAATRNGLGTGYADSVKGRFTISRDNAKNTVYLQMNSLKPEDTAVYYCAAASDAYYSNQRAAYDYWGQGTQVTVSS
B14: anti-PfCSS nanobody B6 (VHH)
VHH: QVQLQESGGGLVQAGGSLRLSCAASGRTFSRYAMGWFRQAPGKEREFVAAISWSGGSTTYADSVKGRFTISRDNAKNTVYLQMNSLKPEDTAVYYCAAGDFIIGNMASEYEYWGQGTQVTVSS
B15: anti-PfCSS nanobody G5 (VHH)
VHH: QVQLQESGGGLVQAGGSLRLSCVASGRTFSSYGMGWFRQAPGKEREFVSAISSDAASRHYANSVKGRFTISRDNAKNTVTLQMSSLTPEDTAVYYCAAVHAYYSNYDGHYDYWGQGTQVTVSS
B16: anti-PfCSS nanobody E12 (VHH)
VHH: QVQLQESGGGLVQAGGSLRLSCVASTRTFGNYAMAWFRQAPGKEREFVTTISASGGNTGAAPSVKGRFAISRDNAKNTVYLQMNSLKPEDTAVYYCAAASAYYSNDPARYTYWGQGTQVTVSS

target: T2, PfPTRAMP (residues 42 to 309), PMX cleaved ectodomain (P. falciparum, UniProt Q8I5M8); assay: BLI

How did the Kd turn out when B1 was run?
The Kd was 530 nM.

Which Kd does the source give for B2 here?
The Kd was 400 nM.

target: T2, PfPTRAMP (residues 42 to 309), PMX …; assay: BLI; remark: another data set of the same source

B3 was tested. Which Kd did it give?
Its Kd is 19000 nM.

Target: B3
Assay: BLI

B4 was tested. Which Kd did it give?
The Kd was 2.6 nM.

B5 was tested. Which Kd did it give?
Its Kd is 6.5 nM.

For B6, which Kd is on record?
The Kd was 4 nM.

For B7, which Kd is on record?
Its Kd is 5 nM.

Which Kd does the source give for B8 here?
Its Kd is 4.4 nM.

B9 was tested. Which Kd did it give?
Its Kd is 4.4 nM.

How did the Kd turn out when B10 was run?
The Kd was 3.5 nM.

B11 was tested. Which Kd did it give?
Its Kd is 0.88 nM.

With B12 as the binder, how does the Kd read?
Its Kd is 0.99 nM.

B13 was tested. Which Kd did it give?
The Kd was 1.5 nM.

How did the Kd turn out when B14 was run?
Its Kd is 0.66 nM.

Which Kd does the source give for B15 here?
Its Kd is 4.9 nM.

B16 was tested. Which Kd did it give?
The Kd was 12 nM.

Target: T1, PTRAMP–CSS heterodimer …
Assay: BLI

B4 was tested. Which Kd did it give?
The Kd was 9 nM.

For B5, which Kd is on record?
The Kd was 12 nM.

How did the Kd turn out when B6 was run?
The Kd was 5.6 nM.

How did the Kd turn out when B7 was run?
Its Kd is 9.9 nM.

B8 was tested. Which Kd did it give?
The Kd was 11 nM.

B10 was tested. Which Kd did it give?
Its Kd is 9.9 nM.

Which Kd does the source give for B12 here?
Its Kd is 6.8 nM.

For B13, which Kd is on record?
The Kd was 12 nM.

With B14 as the binder, how does the Kd read?
Its Kd is 2.5 nM.

How did the Kd turn out when B1 was run?
Its Kd is 390 nM.

With B15 as the binder, how does the Kd read?
Its Kd is 7 nM.

Which Kd does the source give for B2 here?
Its Kd is 410 nM.

For B16, which Kd is on record?
Its Kd is 16 nM.
